Laboratory results taken from publication PMC4951027 (2016).
Ends that are not written are not given here.

B1: GST-FnBPA-1 (domain or fragment)
chain: NEKNGPIIQNNKFEYKEDTIKETLTGQYDKNLVTTVEEEYDS
modifications: also: fused to GST carrier (carrier not in chain)
B2: GST-FnBPA-9 (domain or fragment)
chain: KYEQGGNIVDIDFDSVPQIHGQNKGNQSFEEDTEKDKP
modifications: also: fused to GST carrier (carrier not in chain)
B3: GST-FnBPA-10 (domain or fragment)
chain: KYEHGGNIIDIDFDSVPHIHGFNKHTEIIEEDTNKDKP
modifications: also: fused to GST carrier (carrier not in chain)
B4: GST-FnBPA-11 (domain or fragment)
chain: SYQFGGHNSVDFEEDTLPKVSGQNEGQQTIEEDTTPP
modifications: also: fused to GST carrier (carrier not in chain)
B5: GST-FnBPA-5 (domain or fragment)
chain: GGGQVTTESNLVEFDEESTKGIVTGAVSDHTTVEDTK
modifications: also: fused to GST carrier (carrier not in chain)

What follows are binders tested against Fn N-terminal domain fragment (Fn-NTD) (human) (assay: ITC).
Fn N-terminal domain fragment (Fn-NTD) (human), sequence (chain, as listed by the source): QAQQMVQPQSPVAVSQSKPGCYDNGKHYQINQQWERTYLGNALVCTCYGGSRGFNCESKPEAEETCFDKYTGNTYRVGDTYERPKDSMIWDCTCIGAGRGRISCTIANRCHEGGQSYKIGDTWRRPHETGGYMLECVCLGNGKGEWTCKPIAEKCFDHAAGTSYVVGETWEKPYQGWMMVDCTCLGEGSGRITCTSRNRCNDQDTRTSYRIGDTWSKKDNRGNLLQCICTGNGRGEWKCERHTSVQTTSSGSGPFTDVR

Binder | Kd [nM]
B1 | 4.8
B2 | 7.3
B3 | 20
B4 | < 1
B5 | 44
